{
  "source": "paper PMC11666352",
  "assay_in_all_cases": "stopped-flow fluorescence anisotropy",
  "conditions_in_all_cases": "T17 carries SIMA; Kd: 5 mM Tricine-KOH pH 8.0, 100 mM KCl, 3.4 mM MgCl2, 0.1 mM each dNTP, 0.01% Tween 20, 20 nM hairpin, 55 C (SYTO 13 1/5000 listed in the shared buffer)",
  "key": {"Taq pol E507K E507K": {"biological_target": "Taq pol E507K E507K (UniProt P19821)"}, "Taq pol M747D M747D": {"biological_target": "Taq pol M747D M747D (UniProt P19821)"}, "Taq pol D732N D732N": {"biological_target": "Taq pol D732N D732N (UniProt P19821)"}, "[1]": {"biological_target": "Taq pol D578N-V783I D578N;V783I (UniProt P19821)"}, "[2]": {"biological_target": "Taq pol E507K-A570G-M747Q E507K;A570G;M747Q (UniProt P19821)"}, "[3]": {"biological_target": "Taq pol E507Q-S515N-D578S E507Q;S515N;D578S (UniProt P19821)"}, "[4]": {"biological_target": "Taq pol E507Q-D578S-R728Q E507Q;D578S;R728Q (UniProt P19821)"}, "Taq pol WT": {"biological_target": "Taq pol WT (UniProt P19821)"}, "Taq pol R660V R660V": {"biological_target": "Taq pol R660V R660V (UniProt P19821)"}, "[5]": {"biological_target": "Taq pol D578S-R728Q-M747Q D578S;R728Q;M747Q (UniProt P19821)"}, "Taq pol S515N S515N": {"biological_target": "Taq pol S515N S515N (UniProt P19821)"}, "[6]": {"biological_target": "Taq pol E507K-A570T-M747Q E507K;A570T;M747Q (UniProt P19821)"}, "Taq pol E507Q E507Q": {"biological_target": "Taq pol E507Q E507Q (UniProt P19821)"}, "[7]": {"biological_target": "Taq pol S515D-K540M S515D;K540M (UniProt P19821)"}, "Taq pol D578N D578N": {"biological_target": "Taq pol D578N D578N (UniProt P19821)"}, "[8]": {"biological_target": "Taq pol S515N-M747S S515N;M747S (UniProt P19821)"}, "Taq pol F667M F667M": {"biological_target": "Taq pol F667M F667M (UniProt P19821)"}, "[9]": {"biological_target": "Taq pol D578Q-D732N D578Q;D732N (UniProt P19821)"}, "[10]": {"biological_target": "Taq pol E507Q-D578S-I614M E507Q;D578S;I614M (UniProt P19821)"}, "Taq pol E708D E708D": {"biological_target": "Taq pol E708D E708D (UniProt P19821)"}, "Taq pol F667A F667A": {"biological_target": "Taq pol F667A F667A (UniProt P19821)"}, "[11]": {"biological_target": "Taq pol F667I-R728N-M747S F667I;R728N;M747S (UniProt P19821)"}, "Taq pol H639F H639F": {"biological_target": "Taq pol H639F H639F (UniProt P19821)"}, "[12]": {"biological_target": "Taq pol D578S-R728Q-M747V D578S;R728Q;M747V (UniProt P19821)"}, "Taq pol M747E M747E": {"biological_target": "Taq pol M747E M747E (UniProt P19821)"}, "[13]": {"biological_target": "Taq pol V586N-M747T V586N;M747T (UniProt P19821)"}, "[14]": {"biological_target": "Taq pol R573K-D578N R573K;D578N (UniProt P19821)"}, "Taq pol I707L I707L": {"biological_target": "Taq pol I707L I707L (UniProt P19821)"}, "Taq pol E626K E626K": {"biological_target": "Taq pol E626K E626K (UniProt P19821)"}, "Taq pol D578W D578W": {"biological_target": "Taq pol D578W D578W (UniProt P19821)"}, "[15]": {"biological_target": "Taq pol E507K-R536K-R660V E507K;R536K;R660V (UniProt P19821)"}, "Taq pol S515F S515F": {"biological_target": "Taq pol S515F S515F (UniProt P19821)"}, "[16]": {"biological_target": "Taq pol E507R-R573K-E708Q E507R;R573K;E708Q (UniProt P19821)"}, "[17]": {"biological_target": "Taq pol D578H-M747Q D578H;M747Q (UniProt P19821)"}, "[18]": {"biological_target": "Taq pol E507K-D732N E507K;D732N (UniProt P19821)"}, "Taq pol E507D E507D": {"biological_target": "Taq pol E507D E507D (UniProt P19821)"}, "Taq pol R660S R660S": {"biological_target": "Taq pol R660S R660S (UniProt P19821)"}, "Taq pol H639A H639A": {"biological_target": "Taq pol H639A H639A (UniProt P19821)"}, "Taq pol M747Q M747Q": {"biological_target": "Taq pol M747Q M747Q (UniProt P19821)"}, "[19]": {"biological_target": "Taq pol E507K-D578E E507K;D578E (UniProt P19821)"}, "Taq pol D578K D578K": {"biological_target": "Taq pol D578K D578K (UniProt P19821)"}, "[20]": {"biological_target": "Taq pol E742K-A743R E742K;A743R (UniProt P19821)"}, "Taq pol F667Y F667Y": {"biological_target": "Taq pol F667Y F667Y (UniProt P19821)"}, "Taq pol E708L E708L": {"biological_target": "Taq pol E708L E708L (UniProt P19821)"}, "Taq pol H639Y H639Y": {"biological_target": "Taq pol H639Y H639Y (UniProt P19821)"}, "Taq pol S515D S515D": {"biological_target": "Taq pol S515D S515D (UniProt P19821)"}, "[21]": {"biological_target": "Taq pol E708Q-D732N E708Q;D732N (UniProt P19821)"}},
  "data": [
    {"sequence": "GCTATGCGTGAGCGCTTTTGCGCTCACGCATAGC [H-Kd hairpin]", "values": [
      {"measurement": "Kd", "setting": "Taq pol E507K E507K", "value": 3.38, "unit": "nM"},
      {"measurement": "Kd", "setting": "Taq pol M747D M747D", "value": 29.6, "unit": "nM"},
      {"measurement": "Kd", "setting": "Taq pol D732N D732N", "value": 2.6, "unit": "nM"},
      {"measurement": "Kd", "setting": "[1]", "value": 2.19, "unit": "nM"},
      {"measurement": "Kd", "setting": "[2]", "value": 5.15, "unit": "nM"},
      {"measurement": "Kd", "setting": "[3]", "value": 2.91, "unit": "nM"},
      {"measurement": "Kd", "setting": "[4]", "value": 6.29, "unit": "nM"},
      {"measurement": "Kd", "setting": "Taq pol WT", "value": 6.19, "unit": "nM"},
      {"measurement": "Kd", "setting": "Taq pol R660V R660V", "value": 6.21, "unit": "nM"},
      {"measurement": "Kd", "setting": "[5]", "value": 10.3, "unit": "nM"},
      {"measurement": "Kd", "setting": "Taq pol S515N S515N", "value": 6.71, "unit": "nM"},
      {"measurement": "Kd", "setting": "[6]", "value": 1.53, "unit": "nM"},
      {"measurement": "Kd", "setting": "Taq pol E507Q E507Q", "value": 4.78, "unit": "nM"},
      {"measurement": "Kd", "setting": "[7]", "value": "> 200", "unit": "nM"},
      {"measurement": "Kd", "setting": "Taq pol D578N D578N", "value": 4.26, "unit": "nM"},
      {"measurement": "Kd", "setting": "[8]", "value": 1.93, "unit": "nM"},
      {"measurement": "Kd", "setting": "Taq pol F667M F667M", "value": 8.79, "unit": "nM"},
      {"measurement": "Kd", "setting": "[9]", "value": 0.8, "unit": "nM"},
      {"measurement": "Kd", "setting": "[10]", "value": 1.17, "unit": "nM"},
      {"measurement": "Kd", "setting": "Taq pol E708D E708D", "value": 4.51, "unit": "nM"},
      {"measurement": "Kd", "setting": "Taq pol F667A F667A", "value": 11.1, "unit": "nM"},
      {"measurement": "Kd", "setting": "[11]", "value": 14.4, "unit": "nM"},
      {"measurement": "Kd", "setting": "Taq pol H639F H639F", "value": 6.55, "unit": "nM"},
      {"measurement": "Kd", "setting": "[12]", "value": 13.8, "unit": "nM"},
      {"measurement": "Kd", "setting": "Taq pol M747E M747E", "value": 25.5, "unit": "nM"},
      {"measurement": "Kd", "setting": "[13]", "value": 14.1, "unit": "nM"},
      {"measurement": "Kd", "setting": "[14]", "value": 4.33, "unit": "nM"},
      {"measurement": "Kd", "setting": "Taq pol I707L I707L", "value": 8.54, "unit": "nM"},
      {"measurement": "Kd", "setting": "Taq pol E626K E626K", "value": 5.74, "unit": "nM"},
      {"measurement": "Kd", "setting": "Taq pol D578W D578W", "value": 4.99, "unit": "nM"},
      {"measurement": "Kd", "setting": "[15]", "value": 0.79, "unit": "nM"},
      {"measurement": "Kd", "setting": "Taq pol S515F S515F", "value": 211, "unit": "nM"},
      {"measurement": "Kd", "setting": "[16]", "value": 0.96, "unit": "nM"},
      {"measurement": "Kd", "setting": "[17]", "value": 3.29, "unit": "nM"},
      {"measurement": "Kd", "setting": "[18]", "value": 1.69, "unit": "nM"},
      {"measurement": "Kd", "setting": "Taq pol E507D E507D", "value": 21.4, "unit": "nM"},
      {"measurement": "Kd", "setting": "Taq pol R660S R660S", "value": 10.6, "unit": "nM"},
      {"measurement": "Kd", "setting": "Taq pol H639A H639A", "value": 8.14, "unit": "nM"},
      {"measurement": "Kd", "setting": "Taq pol M747Q M747Q", "value": 4.41, "unit": "nM"},
      {"measurement": "Kd", "setting": "[19]", "value": 1.07, "unit": "nM"},
      {"measurement": "Kd", "setting": "Taq pol D578K D578K", "value": 4.2, "unit": "nM"},
      {"measurement": "Kd", "setting": "[20]", "value": 0.51, "unit": "nM"},
      {"measurement": "Kd", "setting": "Taq pol F667Y F667Y", "value": 11.7, "unit": "nM"},
      {"measurement": "Kd", "setting": "Taq pol E708L E708L", "value": 6.82, "unit": "nM"},
      {"measurement": "Kd", "setting": "Taq pol H639Y H639Y", "value": 7.46, "unit": "nM"},
      {"measurement": "Kd", "setting": "Taq pol S515D S515D", "value": 80.7, "unit": "nM"},
      {"measurement": "Kd", "setting": "[21]", "value": 4.33, "unit": "nM"}
    ]}
  ]
}
